Blank lines part the entries; values can stand above or below the binder they belong to. Numbered stars: 1 amine (or outer) side, 2 acyl side, 3 side chain; on linkers, the order of the positions; unused ones are H or OH. Bridge positions count the residues as written; N and C are the ends. Side chains are listed from the residue outwards. Ends that are not written are not given here. * marks the point of attachment. C20 diacid = O=C(O)CCCCCCCCCCCCCCCCCCC(=O)*; γGlu = O=C(O)[C@H](CCC(=O)[*:2])N[*:1]
Assays:
[1] = biological target: T1, human calcitonin receptor (human, UniProt P30988 25-474); assay: cell-based or functional assay
T1 sequence (looked up): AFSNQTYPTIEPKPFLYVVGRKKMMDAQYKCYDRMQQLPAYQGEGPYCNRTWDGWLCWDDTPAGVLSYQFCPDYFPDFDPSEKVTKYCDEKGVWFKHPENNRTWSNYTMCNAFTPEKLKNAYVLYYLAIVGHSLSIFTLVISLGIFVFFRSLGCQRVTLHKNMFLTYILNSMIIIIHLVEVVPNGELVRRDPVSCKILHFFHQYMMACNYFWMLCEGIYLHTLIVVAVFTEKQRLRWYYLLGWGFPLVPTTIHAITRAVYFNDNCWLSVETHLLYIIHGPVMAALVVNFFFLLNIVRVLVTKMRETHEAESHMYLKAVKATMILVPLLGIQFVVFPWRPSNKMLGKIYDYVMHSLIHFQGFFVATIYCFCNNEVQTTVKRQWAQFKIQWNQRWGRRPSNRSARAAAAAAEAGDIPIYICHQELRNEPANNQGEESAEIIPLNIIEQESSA

[2] = biological target: T2, human amylin 3(a) receptor (human calcitonin receptor co-expressed with RAMP-3) (human, UniProt P30988 25-474; O60896 24-148, limits assumed); assay: cell-based or functional assay
T2 sequence (looked up) 1: T1 sequence (looked up)
T2 sequence (looked up) 2: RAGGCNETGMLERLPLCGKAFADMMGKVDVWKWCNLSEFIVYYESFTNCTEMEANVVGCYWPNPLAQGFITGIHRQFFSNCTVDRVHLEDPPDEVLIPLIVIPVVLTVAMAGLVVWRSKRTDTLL

[3] = biological target: T2, human amylin 3(a) receptor (human …); assay: SPA competition binding, membranes of Amylin 3(a)/CRE-luc BHK cells, displacement of 125I-rat amylin (Assay (V))
Procedure: (§1) The binding assay was performed using scintillation proximity assay (SPA) beads (RPNQ0001) from PerkinElmer and cell membranes from the Amylin 3(a)/CRE-luc cells (as described in Assay (II)) were used. Membranes were prepared in the following way; the cells were rinsed with PBS and incubated with Versene for approximately 5 min before harvesting. The cells were flushed with PBS and the cell-suspension was centrifuged for 5 min at 1000 rpm. Cells were homogenized (ultrathurrax) in a buffer containing 20 mM Na-HEPES and 10 mM EDTA (pH 7.4) and centrifuged at 20.000 rpm for 15 min. The resulting pellet was resuspended, homogenized and centrifuged (20.000 rpm, 15 min) in a buffer containing 20 mM Na-HEPES and 0.1 mM EDTA (pH 7.4, buffer 2). The resulting pellet was resuspended in buffer 2 and protein concentration was measured (BCA protein Assay, Pierce). The homogenate was kept cold during the whole procedure. The membranes were kept at −80° C. until use. The assay was performed in a 384 well Optiplate (PerkinElmer) in a total volume of 40 ul. Membranes were mixed with SPA beads. Final concentration of membranes 35 ng/μL final and SPA beads was 0.05 mg/well. Test-compounds were dissolved in DMSO and further diluted in assay buffer (50 mM Hepes, pH 7.4, 1 mM CaCl2, 5 mM MgCl₂, 0.1% OA and 0.02% Tween20). […] The final mixture was incubated with shaking at 400 rpm for 120 min at 25° C. prior to centrifugation (1500 rpm, 10 min). Samples were analyzed on TopCounter™ (Packard). The IC₅₀ was calculated using (one site binding competition analysis) GraphPad Prism5 as a measure of receptor affinity.

[4] = biological target: T3, human calcitonin receptor (human, UniProt P30988 25-474); assay: ratio of IC50 at hCTR to IC50 at the human amylin receptor (reference)
T3 construct: whole, on cells; also called hCTR; hCT
T3 sequence (looked up): T1 sequence (looked up)
In short: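 Competition binding by SPA with cell membranes (35 ng/μL) and SPA beads in 50 mM Hepes pH 7.4 with 1 mM CaCl2, 5 mM MgCl2, 0.1% OA and 0.02% Tween20. Incubated 120 min at 25 °C with shaking, then counted.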

[5] = biological target: T3, human calcitonin receptor; assay: SPA competition binding, membranes with human calcitonin receptor, displacement of 125I-calcitonin (Assay VII)
In short: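 BHK hCTR membranes 35 ng/μL + SPA beads 0.05 mg/well; buffer 50 mM Hepes pH 7.4, 1 mM CaCl2, 5 mM MgCl₂, 0.1% OA, 0.02% Tween20. 120 min, 25° C., shaking. Scintillation count; IC50 by one-site binding competition.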

[6] = biological target: T4, human amylin receptor (amylin 3(a) receptor: human calcitonin receptor plus RAMP-3) (human, UniProt P30988 25-474; O60896 24-148); assay: SPA competition binding, membranes with human amylin 3(a) receptor, displacement of 125I-rat amylin (Assay V)
T4 construct: whole, on cells; the species of RAMP-3 is told only through the name 'human amylin receptor'; also called hAmylin-R; hAmylinR
T4 sequence (looked up) 1: T1 sequence (looked up)
T4 sequence (looked up) 2: T2 sequence (looked up) 2
Procedure: as §1

Ratio hCT/hAmylin funct. [1]: 6.3 | hCTR funct. EC50 [1]: 2.54 nM | hAmylin-R funct. EC50 [2]: 0.405 nM | IC50 [3]: 0.387 nM
B1: N^ε1-[(4S)-4-carboxy-4-(19-carboxynonadecanoylamino)butanoyl]-[Glu14,Arg17,Pro21,Pro27,His34,Glu35]-h-amylin (peptide)
peptide: K([γGlu-C20 diacid])CNTATCATQRLAEFLRHSSPNFGAIPSSTNVGHETY-NH2
modifications: disulfide 2-7; N-terminus assumed
SMILES: CC[C@H](C)[C@H](NC(=O)[C@H](C)NC(=O)CNC(=O)[C@H](Cc1ccccc1)NC(=O)[C@H](CC(N)=O)NC(=O)[C@@H]1CCCN1C(=O)[C@H](CO)NC(=O)[C@H](CO)NC(=O)[C@H](Cc1c[nH]cn1)NC(=O)[C@H](CCCNC(=N)N)NC(=O)[C@H](CC(C)C)NC(=O)[C@H](Cc1ccccc1)NC(=O)[C@H](CCC(=O)O)NC(=O)[C@H](C)NC(=O)[C@H](CC(C)C)NC(=O)[C@H](CCCNC(=N)N)NC(=O)[C@H](CCC(N)=O)NC(=O)[C@@H](NC(=O)[C@H](C)NC(=O)[C@@H]1CSSC[C@H](NC(=O)[C@@H](N)CCCCNC(=O)CC[C@H](NC(=O)CCCCCCCCCCCCCCCCCCC(=O)O)C(=O)O)C(=O)N[C@@H](CC(N)=O)C(=O)N[C@@H]([C@@H](C)O)C(=O)N[C@@H](C)C(=O)N[C@@H]([C@@H](C)O)C(=O)N1)[C@@H](C)O)C(=O)N1CCC[C@H]1C(=O)N[C@@H](CO)C(=O)N[C@@H](CO)C(=O)N[C@H](C(=O)N[C@@H](CC(N)=O)C(=O)N[C@H](C(=O)NCC(=O)N[C@@H](Cc1c[nH]cn1)C(=O)N[C@@H](CCC(=O)O)C(=O)N[C@H](C(=O)N[C@@H](Cc1ccc(O)cc1)C(N)=O)[C@@H](C)O)C(C)C)[C@@H](C)O
notes: also called compound 107

Ratio hCT/hAmylin binding [4]: 12.5 | IC50 [5]: 10.9 nM | IC50 [6]: 0.878 nM
B2: N^α1-[(4S)-4-carboxy-4-(19-carboxynonadecanoylamino)butanoyl]-[Glu14,Arg17,Pro21,Pro27,His34]-h-amylin (peptide)
peptide: {C20 diacid-γGlu}-KCNTATCATQRLAEFLRHSSPNFGAIPSSTNVGHNTY-NH2
modifications: disulfide 2-7
SMILES: CC[C@H](C)[C@H](NC(=O)[C@H](C)NC(=O)CNC(=O)[C@H](Cc1ccccc1)NC(=O)[C@H](CC(N)=O)NC(=O)[C@@H]1CCCN1C(=O)[C@H](CO)NC(=O)[C@H](CO)NC(=O)[C@H](Cc1c[nH]cn1)NC(=O)[C@H](CCCNC(=N)N)NC(=O)[C@H](CC(C)C)NC(=O)[C@H](Cc1ccccc1)NC(=O)[C@H](CCC(=O)O)NC(=O)[C@H](C)NC(=O)[C@H](CC(C)C)NC(=O)[C@H](CCCNC(=N)N)NC(=O)[C@H](CCC(N)=O)NC(=O)[C@@H](NC(=O)[C@H](C)NC(=O)[C@@H]1CSSC[C@H](NC(=O)[C@H](CCCCN)NC(=O)CC[C@H](NC(=O)CCCCCCCCCCCCCCCCCCC(=O)O)C(=O)O)C(=O)N[C@@H](CC(N)=O)C(=O)N[C@@H]([C@@H](C)O)C(=O)N[C@@H](C)C(=O)N[C@@H]([C@@H](C)O)C(=O)N1)[C@@H](C)O)C(=O)N1CCC[C@H]1C(=O)N[C@@H](CO)C(=O)N[C@@H](CO)C(=O)N[C@H](C(=O)N[C@@H](CC(N)=O)C(=O)N[C@H](C(=O)NCC(=O)N[C@@H](Cc1c[nH]cn1)C(=O)N[C@@H](CC(N)=O)C(=O)N[C@H](C(=O)N[C@@H](Cc1ccc(O)cc1)C(N)=O)[C@@H](C)O)C(C)C)[C@@H](C)O
notes: also called compound 17

Ratio hCT/hAmylin binding [4]: 10.9 | IC50 [5]: 1.09 nM | IC50 [6]: 0.1 nM
B3: N^α1-[(4S)-4-carboxy-4-(19-carboxynonadecanoylamino)butanoyl]-[Glu14,Arg17,Pro21,Pro27,Pro34]-h-amylin (peptide)
peptide: {C20 diacid-γGlu}-KCNTATCATQRLAEFLRHSSPNFGAIPSSTNVGPNTY-NH2
modifications: disulfide 2-7
SMILES: CC[C@H](C)[C@H](NC(=O)[C@H](C)NC(=O)CNC(=O)[C@H](Cc1ccccc1)NC(=O)[C@H](CC(N)=O)NC(=O)[C@@H]1CCCN1C(=O)[C@H](CO)NC(=O)[C@H](CO)NC(=O)[C@H](Cc1c[nH]cn1)NC(=O)[C@H](CCCNC(=N)N)NC(=O)[C@H](CC(C)C)NC(=O)[C@H](Cc1ccccc1)NC(=O)[C@H](CCC(=O)O)NC(=O)[C@H](C)NC(=O)[C@H](CC(C)C)NC(=O)[C@H](CCCNC(=N)N)NC(=O)[C@H](CCC(N)=O)NC(=O)[C@@H](NC(=O)[C@H](C)NC(=O)[C@@H]1CSSC[C@H](NC(=O)[C@H](CCCCN)NC(=O)CC[C@H](NC(=O)CCCCCCCCCCCCCCCCCCC(=O)O)C(=O)O)C(=O)N[C@@H](CC(N)=O)C(=O)N[C@@H]([C@@H](C)O)C(=O)N[C@@H](C)C(=O)N[C@@H]([C@@H](C)O)C(=O)N1)[C@@H](C)O)C(=O)N1CCC[C@H]1C(=O)N[C@@H](CO)C(=O)N[C@@H](CO)C(=O)N[C@H](C(=O)N[C@@H](CC(N)=O)C(=O)N[C@H](C(=O)NCC(=O)N1CCC[C@H]1C(=O)N[C@@H](CC(N)=O)C(=O)N[C@H](C(=O)N[C@@H](Cc1ccc(O)cc1)C(N)=O)[C@@H](C)O)C(C)C)[C@@H](C)O
notes: also called compound 32

Ratio hCT/hAmylin binding [4]: 47.5 | IC50 [5]: 19.5 nM | IC50 [6]: 0.411 nM
B4: N^ε1-[(4S)-4-carboxy-4-[[(4S)-4-carboxy-4-(19-carboxynonadecanoylamino)butanoyl]amino]butanoyl]-[Asp14,Arg17,Pro21,Pro27,Asp35]-h-amylin (peptide)
peptide: K([γGlu-γGlu-C20 diacid])CNTATCATQRLADFLRHSSPNFGAIPSSTNVGSDTY-NH2
modifications: disulfide 2-7; N-terminus assumed
SMILES: CC[C@H](C)[C@H](NC(=O)[C@H](C)NC(=O)CNC(=O)[C@H](Cc1ccccc1)NC(=O)[C@H](CC(N)=O)NC(=O)[C@@H]1CCCN1C(=O)[C@H](CO)NC(=O)[C@H](CO)NC(=O)[C@H](Cc1c[nH]cn1)NC(=O)[C@H](CCCNC(=N)N)NC(=O)[C@H](CC(C)C)NC(=O)[C@H](Cc1ccccc1)NC(=O)[C@H](CC(=O)O)NC(=O)[C@H](C)NC(=O)[C@H](CC(C)C)NC(=O)[C@H](CCCNC(=N)N)NC(=O)[C@H](CCC(N)=O)NC(=O)[C@@H](NC(=O)[C@H](C)NC(=O)[C@@H]1CSSC[C@H](NC(=O)[C@@H](N)CCCCNC(=O)CC[C@H](NC(=O)CC[C@H](NC(=O)CCCCCCCCCCCCCCCCCCC(=O)O)C(=O)O)C(=O)O)C(=O)N[C@@H](CC(N)=O)C(=O)N[C@@H]([C@@H](C)O)C(=O)N[C@@H](C)C(=O)N[C@@H]([C@@H](C)O)C(=O)N1)[C@@H](C)O)C(=O)N1CCC[C@H]1C(=O)N[C@@H](CO)C(=O)N[C@@H](CO)C(=O)N[C@H](C(=O)N[C@@H](CC(N)=O)C(=O)N[C@H](C(=O)NCC(=O)N[C@@H](CO)C(=O)N[C@@H](CC(=O)O)C(=O)N[C@H](C(=O)N[C@@H](Cc1ccc(O)cc1)C(N)=O)[C@@H](C)O)C(C)C)[C@@H](C)O
notes: also called compound 2

From patent US20140087995A1 (published 2014)
